Experiments:
[1] = biological target: mouse αVβ6 on cells (mouse) (UniProt P43406); assay: FACS, K562 cells expressing mouse αVβ6 (parental 23)
[2] = biological target: cynomolgus αVβ6 on cells (cynomolgus); assay: FACS, K562 cells expressing cynomolgus αVβ6 (parental 23)
[3] = biological target: mouse αVβ6 on cells (mouse) (UniProt P43406); assay: FACS, HEK-293 transfected with mouse αVβ6
[4] = biological target: cynomolgus αVβ6 on cells (cynomolgus); assay: FACS, K562 cells expressing cynomolgus αVβ6 (parental 46)
[5] = biological target: α4β1 integrin (on J6.77 cells) (UniProt P13612); assay: cell-based or functional assay
[6] = biological target: mouse αV (HEK-293 cells transfected with mouse αV alone) (mouse) (UniProt P43406); assay: FACS, HEK-293 transfected with mouse αV
mouse αV (HEK-293 cells transfected with mouse αV alone) (mouse), sequence (P43406 31-1044): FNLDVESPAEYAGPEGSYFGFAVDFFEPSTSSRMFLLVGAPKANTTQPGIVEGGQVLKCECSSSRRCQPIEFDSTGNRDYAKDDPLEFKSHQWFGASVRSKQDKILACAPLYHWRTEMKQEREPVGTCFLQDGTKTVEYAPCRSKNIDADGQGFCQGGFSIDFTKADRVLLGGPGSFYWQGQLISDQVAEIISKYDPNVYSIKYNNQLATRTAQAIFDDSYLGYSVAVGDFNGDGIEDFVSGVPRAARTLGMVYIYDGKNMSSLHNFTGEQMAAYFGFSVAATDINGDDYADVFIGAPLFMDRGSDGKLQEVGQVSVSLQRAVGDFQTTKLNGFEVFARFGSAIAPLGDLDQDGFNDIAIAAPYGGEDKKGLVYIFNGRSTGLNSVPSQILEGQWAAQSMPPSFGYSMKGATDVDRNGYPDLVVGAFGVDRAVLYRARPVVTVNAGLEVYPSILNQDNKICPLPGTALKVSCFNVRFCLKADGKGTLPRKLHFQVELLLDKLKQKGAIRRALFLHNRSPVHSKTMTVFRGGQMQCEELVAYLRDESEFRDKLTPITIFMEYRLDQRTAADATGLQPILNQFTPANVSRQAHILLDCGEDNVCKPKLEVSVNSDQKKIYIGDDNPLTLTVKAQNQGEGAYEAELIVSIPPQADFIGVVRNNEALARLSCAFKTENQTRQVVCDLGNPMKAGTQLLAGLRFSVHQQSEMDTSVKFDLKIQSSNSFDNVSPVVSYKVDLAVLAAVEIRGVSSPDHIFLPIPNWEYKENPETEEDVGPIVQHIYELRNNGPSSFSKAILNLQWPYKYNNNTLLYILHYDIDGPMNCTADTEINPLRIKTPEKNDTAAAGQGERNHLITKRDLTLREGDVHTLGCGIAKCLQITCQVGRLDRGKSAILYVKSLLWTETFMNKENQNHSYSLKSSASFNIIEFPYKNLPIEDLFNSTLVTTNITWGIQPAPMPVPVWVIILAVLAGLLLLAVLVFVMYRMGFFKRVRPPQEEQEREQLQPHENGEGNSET

[7] = biological target: cynomolgus αVβ6 on cells (cynomolgus); assay: FACS, HEK-293 transfected with cynomolgus αVβ6
[8] = biological target: mouse αVβ6 on cells (mouse) (UniProt P43406); assay: FACS, K562 cells expressing mouse αVβ6 (parental 46)
[9] = biological target: cynomolgus β6 (HEK-293 cells transfected with cynomolgus β6 alone) (cynomolgus); assay: FACS, HEK-293 transfected with cynomolgus β6
[10] = biological target: cynomolgus αV (HEK-293 cells transfected with cynomolgus αV alone) (cynomolgus); assay: FACS, HEK-293 transfected with cynomolgus αV
[11] = biological target: mouse β6 (HEK-293 cells transfected with mouse β6 alone) (mouse) (UniProt Q9Z0T9); assay: FACS, HEK-293 transfected with mouse β6
mouse β6 (HEK-293 cells transfected with mouse β6 alone) (mouse), sequence (Q9Z0T9 22-787): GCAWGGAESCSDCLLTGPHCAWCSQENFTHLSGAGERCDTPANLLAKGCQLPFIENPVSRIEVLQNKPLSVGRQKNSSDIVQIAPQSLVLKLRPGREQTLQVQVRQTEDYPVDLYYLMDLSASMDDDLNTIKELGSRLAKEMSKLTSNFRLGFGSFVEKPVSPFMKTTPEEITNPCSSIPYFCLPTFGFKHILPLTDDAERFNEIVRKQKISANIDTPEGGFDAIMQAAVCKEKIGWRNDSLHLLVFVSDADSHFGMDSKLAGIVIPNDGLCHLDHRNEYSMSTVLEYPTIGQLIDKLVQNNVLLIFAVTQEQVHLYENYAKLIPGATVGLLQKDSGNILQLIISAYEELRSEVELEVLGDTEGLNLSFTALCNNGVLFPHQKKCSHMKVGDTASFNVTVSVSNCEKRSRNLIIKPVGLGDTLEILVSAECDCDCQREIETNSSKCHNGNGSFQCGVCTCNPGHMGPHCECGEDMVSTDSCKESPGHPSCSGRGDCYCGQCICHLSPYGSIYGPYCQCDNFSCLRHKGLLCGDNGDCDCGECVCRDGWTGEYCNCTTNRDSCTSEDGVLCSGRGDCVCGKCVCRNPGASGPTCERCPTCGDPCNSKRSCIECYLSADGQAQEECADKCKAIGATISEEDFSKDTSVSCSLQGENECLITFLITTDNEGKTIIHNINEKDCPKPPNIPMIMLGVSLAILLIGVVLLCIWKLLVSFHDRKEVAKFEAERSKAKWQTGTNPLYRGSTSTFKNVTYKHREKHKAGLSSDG

[12] = biological target: human αV on parental A375M cells, which express αVβ3 and αVβ5, but not αVβ6 (human) (UniProt P06756); assay: cell-based or functional assay
human αV on parental A375M cells, which express αVβ3 and αVβ5, but not αVβ6 (human), sequence (P06756 31-1048 A375M): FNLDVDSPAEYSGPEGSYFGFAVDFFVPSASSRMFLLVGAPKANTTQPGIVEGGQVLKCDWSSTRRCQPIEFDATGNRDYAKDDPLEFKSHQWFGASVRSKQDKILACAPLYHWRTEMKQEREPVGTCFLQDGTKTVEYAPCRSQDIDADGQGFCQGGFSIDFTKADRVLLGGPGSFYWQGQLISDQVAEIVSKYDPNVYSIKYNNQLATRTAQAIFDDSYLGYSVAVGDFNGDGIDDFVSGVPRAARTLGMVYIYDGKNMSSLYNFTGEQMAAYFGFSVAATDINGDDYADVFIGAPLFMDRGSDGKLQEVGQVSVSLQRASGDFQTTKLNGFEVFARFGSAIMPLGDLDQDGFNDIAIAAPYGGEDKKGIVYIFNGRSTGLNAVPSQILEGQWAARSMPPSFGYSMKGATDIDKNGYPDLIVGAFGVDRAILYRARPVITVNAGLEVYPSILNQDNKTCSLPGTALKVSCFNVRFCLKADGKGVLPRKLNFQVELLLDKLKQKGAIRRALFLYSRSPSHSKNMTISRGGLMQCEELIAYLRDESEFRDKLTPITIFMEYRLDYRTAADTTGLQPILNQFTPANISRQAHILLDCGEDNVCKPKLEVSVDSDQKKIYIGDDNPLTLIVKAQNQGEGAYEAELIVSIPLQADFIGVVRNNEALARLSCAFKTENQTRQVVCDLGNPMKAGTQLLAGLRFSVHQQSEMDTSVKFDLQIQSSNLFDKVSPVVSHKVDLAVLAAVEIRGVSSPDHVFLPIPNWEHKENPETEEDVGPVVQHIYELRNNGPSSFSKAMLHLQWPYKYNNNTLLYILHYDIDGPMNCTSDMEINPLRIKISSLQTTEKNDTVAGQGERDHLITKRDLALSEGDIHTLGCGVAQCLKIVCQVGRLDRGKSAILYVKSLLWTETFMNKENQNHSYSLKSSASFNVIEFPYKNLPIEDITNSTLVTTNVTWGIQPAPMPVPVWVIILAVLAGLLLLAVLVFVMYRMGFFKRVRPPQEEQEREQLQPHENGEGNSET

[13] = biological target: α5β1 integrin (on K562 cells) (UniProt P08648); assay: cell-based or functional assay
[14] = biological target: cynomolgus αVβ6 on cells (cynomolgus); assay: FACS, HEK-293 transfected with cynomolgus αV and β6, day 2
[15] = biological target: human αV on parental A375M cells, which express αVβ3 and αVβ5, but not αVβ6 (human) (UniProt P06756); assay: FACS, parental A375M cells, day 2
[16] = biological target: cynomolgus αVβ6 on cells (cynomolgus); assay: FACS, HEK-293 transfected with cynomolgus αV and β6, day 1
[17] = biological target: human αV on parental A375M cells, which express αVβ3 and αVβ5, but not αVβ6 (human) (UniProt P06756); assay: FACS, parental A375M cells, day 1
[18] = biological target: mouse αVβ6 on cells (mouse) (UniProt P43406); assay: FACS, K562 cells expressing mouse αVβ6 (parental 12)
[19] = biological target: cynomolgus αVβ6 on cells (cynomolgus); assay: FACS, K562 cells expressing cynomolgus αVβ6 (parental 12)
[20] = biological target: cynomolgus αVβ6 on cells (cynomolgus); assay: FACS, K562 cells expressing cynomolgus αVβ6 (parental 15)
[21] = biological target: human αVβ6 integrin on cells (human) (UniProt P06756); assay: FMAT, HEK 293 cells overexpressing αVβ6, 1 ug/mL
human αVβ6 integrin on cells (human), sequence (P06756 31-1048, chain 1 of 2): as the sequence (P06756 31-1048 A375M) above, with M345A counted along it
human αVβ6 integrin on cells (human), sequence (P18564 22-788, chain 2 of 2, further chain): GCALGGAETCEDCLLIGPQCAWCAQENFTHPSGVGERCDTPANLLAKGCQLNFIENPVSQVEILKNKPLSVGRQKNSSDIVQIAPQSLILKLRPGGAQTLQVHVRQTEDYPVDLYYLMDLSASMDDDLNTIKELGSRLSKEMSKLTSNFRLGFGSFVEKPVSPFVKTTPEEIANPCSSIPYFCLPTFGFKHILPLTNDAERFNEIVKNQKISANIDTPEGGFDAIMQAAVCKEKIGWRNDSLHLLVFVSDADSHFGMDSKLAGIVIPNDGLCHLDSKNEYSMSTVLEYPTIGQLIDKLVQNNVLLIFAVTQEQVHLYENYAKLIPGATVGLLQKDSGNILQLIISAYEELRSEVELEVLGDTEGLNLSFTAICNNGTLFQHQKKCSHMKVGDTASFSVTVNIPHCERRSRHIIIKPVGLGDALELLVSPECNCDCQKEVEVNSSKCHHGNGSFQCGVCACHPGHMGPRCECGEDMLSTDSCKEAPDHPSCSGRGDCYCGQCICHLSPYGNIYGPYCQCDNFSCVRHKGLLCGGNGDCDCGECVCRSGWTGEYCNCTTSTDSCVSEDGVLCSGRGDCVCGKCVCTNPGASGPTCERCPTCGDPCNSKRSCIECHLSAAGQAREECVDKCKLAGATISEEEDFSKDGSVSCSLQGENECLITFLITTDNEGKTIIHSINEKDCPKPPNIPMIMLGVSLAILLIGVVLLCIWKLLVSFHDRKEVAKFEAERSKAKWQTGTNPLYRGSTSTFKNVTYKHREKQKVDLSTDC

[22] = biological target: human αVβ6 integrin on cells (human) (UniProt P06756); assay: cell-based or functional assay
soluble αVβ6 (human) = soluble αVβ6 (human) (UniProt P06756); assay: ELISA on coated soluble αVβ6, 1 ug/mL
[23] = biological target: mouse αVβ6 on cells (mouse) (UniProt P43406); assay: FACS, K562 cells expressing mouse αVβ6 (parental 15)

mouse αVβ6 on cells (mouse), sequence (P43406 31-1044, chain 1 of 2): as the sequence (P43406 31-1044) above
mouse αVβ6 on cells (mouse), sequence (Q9Z0T9 22-787, chain 2 of 2, further chain): as the sequence (Q9Z0T9 22-787) above

Mouse IgG2a (antibody) showed a Geometric Mean Shift [1] of 36 and a Geometric Mean Shift [2] of 25.

Substance Human IgG1 (antibody) has a percent of cells shifted [3] of 1%, a Geometric Mean Shift [4] of 54 and a Percent Inhibition (J6.77 adhesion to CS-1 peptide of fibronectin, 5 ug/ml) [5] of 26%. The percent of cells shifted [6] was 1%, the percent of cells shifted [7] was 0% and the Geometric Mean Shift [8] was 108. For the same substance, the percent of cells shifted [9] was 1%, the percent of cells shifted [10] was 1% and the percent of cells shifted [11] was 0%.

Human IgG Isotype Control (antibody) showed a Percent Inhibition (A375M adhesion to osteopontin peptide, 5 µg/ml) [12] of 3%, a % Inhibition (K562 adhesion to fibronectin) [13] of -12% and a Percent Inhibition (K562 adhesion to FN9-10 peptide of fibronectin, 5 µg/ml) [13] of 11%. The % Cells Shifted [14] was 0%, the GeoMean [14] was 7.39 and the % Cells Shifted [15] was 1%. It also gave a GeoMean [15] of 7.23, a % Cells Shifted [16] of 1% and a GeoMean [16] of 9.54. For the same substance, the % Cells Shifted [17] was 5% and the GeoMean [17] was 1.66.

Mouse IgG1 (antibody) gave a Geometric Mean Shift [18] of 20 and a Geometric Mean Shift [19] of 13.

Substance Mouse IgG Control (antibody) has a Percent Inhibition (A375M adhesion to osteopontin peptide, 5 µg/ml) [12] of 5%.

In the case of “murine αVβ6 antibody (Cat#MAB2077z, Chemicon)”, the percent of cells shifted [3] is reported as 45%, the Geometric Mean Shift [20] is reported as 84 and the FMAT Count [21] is reported as 67. It also gave an FMAT FL1 [21] of 659, an FMAT FL1 × Count [21] of 44200 and an Estimated IC50, n = 1 (HT29 adhesion to TGFβLAP) [22] of 0.226 µg/mL. For the same substance, the Estimated IC50, n = 2 (HT29 adhesion to TGFβLAP) [22] was 0.185 µg/mL, the Estimated IC50, n = 3 (HT29 adhesion to TGFβLAP) [22] was 0.286 µg/mL and the % Cells Shifted [14] was 11%. The GeoMean [14] was 28.1, the percent of cells shifted [6] was 1% and the ELISA OD (soluble αVβ6 (human)) was 6. It also gave a % Cells Shifted [15] of 5%, a GeoMean [15] of 15.4 and a percent of cells shifted [7] of 20%. For the same substance, the % Cells Shifted [16] was 42%, the GeoMean [16] was 55.5 and the Geometric Mean Shift [23] was 122. The % Cells Shifted [17] was 30%, the GeoMean [17] was 2.03 and the percent of cells shifted [9] was 5%. It also gave a percent of cells shifted [10] of 0% and a percent of cells shifted [11] of 11%.

Human IgG2 (antibody) was tested, and the Percent Inhibition (J6.77 adhesion to CS-1 peptide of fibronectin, 5 ug/ml) [5] was 13%.

Substance Human IgG4 (antibody) has a Percent Inhibition (J6.77 adhesion to CS-1 peptide of fibronectin, 5 ug/ml) [5] of 15%.

“Mouse IgG2 with Murine Secondary Antibody” was tested, and the % Cells Shifted [14] was 0%, the GeoMean [14] was 11.2 and the % Cells Shifted [15] was 3%. The GeoMean [15] was 11.2, the % Cells Shifted [16] was 1% and the GeoMean [16] was 8.85. It also gave a % Cells Shifted [17] of 4% and a GeoMean [17] of 1.67.

— US20080057063A1
